The data set has as its target β2 adrenergic receptor modified to have a Flag epitope at the amino terminus and a TEV protease site within the third intracellular loop between residues 254 and 260 of the native protein.

B1: Tobacco Etch Virus (TEV) protease, recombinant (protein)
chain: GESLFKGPRDYNPISSTICHLTNESDGHTTSLYGIGFGPFIITNKHLFRRNNGTLLVQSLHGVFKVKNTTTLQQHLIDGRDMIIIRMPKDFPPFPQKLKFREPQREERICLVTTNFQTKSMSSMVSDTSCTFPSSDGIFWKHWIQTKDGQCGSPLVSTRDGFIVGIHSASNFTNTNNYFTSVPKNFMELLTNQEAQQWVSGWRLNADSVLWGGHKVFMSKPEEPFQPVKEATQLMNELVYSQ
For the protein B1, the “Ratio of TEV-cleaved to uncleaved receptor (axis 'cut/uncut'), from the blot of FIG. 11B” value is “Two bars, no error bars and no printed values. The 'Control' bar ends just above the 0.3 tick. The 'Isoproterenol' bar ends between the 1.2 and 1.5 ticks, several times higher than the control”; the “TEV cleavage of the receptor (Western blot; ratio of cleaved to uncleaved receptor), with and without the agonist isoproterenol” value is reported as “TEV cleavage of the 12 adrenergic receptor was enhanced in the presence of isoproterenol”; the “TEV cleavage of the receptor's third-loop TEV site, seen as the lower (cleaved, N-terminal) band on a Western blot probed with M1 antibody” value was “No lower band without TEV (TEV-/ISO-). Very faint lower band with TEV alone (TEV+/ISO-). Strong lower band and a weaker upper band with TEV plus isoproterenol (TEV+/ISO+)”.

The values above are taken from patent US20040157268.
